In US12202907B2, “Nucleic acids encoding and methods of producing proteins comprising antibody chains” (Innate Pharma, priority 2018, dated 2025):
Where a chain is given by its changes, count along the chain named.

T1: CD39 (Homo sapiens, UniProt P49961)
T1 sequence (P49961 1-510): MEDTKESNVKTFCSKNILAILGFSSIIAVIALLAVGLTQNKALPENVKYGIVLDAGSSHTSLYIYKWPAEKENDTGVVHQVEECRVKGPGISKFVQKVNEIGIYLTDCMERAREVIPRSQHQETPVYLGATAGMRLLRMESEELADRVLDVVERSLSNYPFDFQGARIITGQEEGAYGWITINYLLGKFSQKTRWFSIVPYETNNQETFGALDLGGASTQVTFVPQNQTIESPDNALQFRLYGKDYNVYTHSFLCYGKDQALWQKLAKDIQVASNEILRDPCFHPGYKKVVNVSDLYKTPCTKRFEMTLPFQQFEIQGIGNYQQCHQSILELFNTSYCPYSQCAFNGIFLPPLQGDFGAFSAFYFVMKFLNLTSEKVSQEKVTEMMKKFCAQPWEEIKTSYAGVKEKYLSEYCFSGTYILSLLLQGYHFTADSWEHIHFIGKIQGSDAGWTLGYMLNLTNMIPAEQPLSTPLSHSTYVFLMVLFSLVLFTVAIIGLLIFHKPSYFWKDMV

T2: soluble recombinant human CD39 protein (Homo sapiens, UniProt P49961)
T2 construct: made in house; host or cells: CHO cells
T2 sequence (P49961 with tags, fused parts or gaps): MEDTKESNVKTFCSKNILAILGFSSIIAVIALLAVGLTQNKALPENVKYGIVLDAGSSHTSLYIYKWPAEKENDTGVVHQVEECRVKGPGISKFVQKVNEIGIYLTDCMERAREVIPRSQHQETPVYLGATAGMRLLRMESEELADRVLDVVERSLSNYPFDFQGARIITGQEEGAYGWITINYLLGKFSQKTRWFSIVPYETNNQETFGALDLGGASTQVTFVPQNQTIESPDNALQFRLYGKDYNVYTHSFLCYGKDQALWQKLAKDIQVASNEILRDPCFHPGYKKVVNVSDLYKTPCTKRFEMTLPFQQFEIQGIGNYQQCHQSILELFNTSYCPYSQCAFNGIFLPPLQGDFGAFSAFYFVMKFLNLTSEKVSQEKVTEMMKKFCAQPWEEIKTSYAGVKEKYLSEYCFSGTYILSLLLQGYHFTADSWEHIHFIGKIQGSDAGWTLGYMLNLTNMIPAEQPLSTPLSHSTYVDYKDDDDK

T3: CD39 expressed by Ramos human lymphoma cells (Homo sapiens, UniProt P49961)
T3 construct: cells that endogenously express CD39 at their surface; host or cells: Ramos
T3 sequence (P49961 1-510): T1 sequence (P49961 1-510)

T4: membrane-bound CD39 in Mino tumor cells (Homo sapiens, UniProt P49961)
T4 construct: endogenous in cells; host or cells: Mino
T4 sequence (P49961 1-510): T1 sequence (P49961 1-510)

T5: human Ramos lymphoma cells (CD39) (Homo sapiens, UniProt P49961)
T5 construct: cells that endogenously express CD39 at their surface; host or cells: Ramos
T5 sequence (P49961 1-510): T1 sequence (P49961 1-510)

B1: mAb20: humanized I-394 variant, VH H4 (SEQ ID NO: 31), VL L1 (SEQ ID NO: 36); heavy chain SEQ ID NO: 38, light chain SEQ ID NO: 39 (antibody)
heavy: QVQLVQSGAEVKKPGASVKVSCKASGYTFTDYNMHWVRQAPGQRLEWIGYIVPLNGGSTFNQKFKGRATITVDTSARTAYMELSSLRSEDTAVYYCARGGTRFAYWGQGTLVTVSSASTKGPSVFPLAPSSKSTSGGTAALGCLVKDYFPEPVTVSWNSGALTSGVHTFPAVLQSSGLYSLSSVVTVPSSSLGTQTYICNVNHKPSNTKVDKRVEPKSCDKTHTCPPCPAPEAEGAPSVFLFPPKPKDTLMISRTPEVTCVVVDVSHEDPEVKFNWYVDGVEVHNAKTKPREEQYNSTYRVVSVLTVLHQDWLNGKEYKCKVSNKALPSSIEKTISKAKGQPREPQVYTLPPSREEMTKNQVSLTCLVKGFYPSDIAVEWESNGQPENNYKTTPPVLDSDGSFFLYSKLTVDKSRWQQGNVFSCSVMHEALHNHYTQKSLSLSPGK
light: DIVMTQSPDSLAVSLGERATINCRASESVDNFGVSFMYWFQQKPGQPPKLLIYGASNQGSGVPDRFSGSGSGTDFTLTISSLQAEDVAVYYCQQTKEVPYTFGGGTKVEIKRTVAAPSVFIFPPSDEQLKSGTASVVCLLNNFYPREAKVQWKVDNALQSGNSQESVTEQDSKDSTYSLSSTLTLSKADYEKHKVYACEVTHQGLSSPVTKSFNRGEC
B2: mAb21: humanized I-394 variant, VH H4 (SEQ ID NO: 31), VL L1* (SEQ ID NO: 37); heavy chain SEQ ID NO: 38, light chain SEQ ID NO: 40 (antibody)
heavy: B1 heavy
light: B1 light with R24K

Experiments:
CD39 = target: T1, CD39; details: Levesque et al. (2007); cited from earlier work
[1] = target: T2, soluble recombinant human CD39 protein; experiment: Inhibition of the enzymatic activity of soluble CD39 (Cell Titer Glo, cell-free); format: biochemical; details: humanized variants
Method: (§1) The inhibition by antibodies of the enzymatic activity of soluble CD39 protein produced was evaluated using Cell Titer GIo™ (Promega, reference G7571) that allows assessment of ATP hydrolysis through use of a reagent that generates a luminescent signal proportional to the amount of ATP present. In this way, inhibition of the soluble-CD39-meidated ATP hydrolysis can be assessed. Briefly, dose ranges of anti-CD39 antibodies from 100 μg/ml to […] were incubated with 400 ng/ml of soluble recombinant human CD39 protein having the amino acid sequence described in the Methods section (SEQ ID NO: 44), for 1 h at 37° C. 20 μM ATP was added to the plates for 30 additional minutes at 37° C. before addition of CTG (Cell Titer Glo) reagent. Emitted light was quantified using an Enspire™ luminometer after a short incubation period of 5 min in the dark. Anti-CD39 antibody efficacy was determined by comparing emitted light in presence of antibody with ATP alone (maximal light emission) and ATP together with soluble CD39 protein (minimal light emission).

[2] = target: T3, CD39 expressed by Ramos human lymphoma cells; experiment: Inhibition of the enzymatic activity of cellular CD39 in Ramos cells; format: cell-based; details: Ramos cells
Method: (§2) The inhibition of the CD39 enzymatic activity in CD39-expressing cells by antibodies was evaluated using Cell Titer GIo™ (Promega, reference G7571) that allows assessment of ATP hydrolysis through use of a reagent that generates a luminescent signal proportional to the amount of ATP present. The assay was thus designed to permit assessment of the inhibition of ATP hydrolyzed by CD39 in the cell culture supernatant. Briefly, 5×10^4 Ramos human lymphoma cells, 5×10^3 human CD39−, cynomolgus CD39—and mouse CD39− expressing CHO cells, were incubated 1 hour at 37° C. with anti-CD39 antibodies from 30 μg/ml to 5×10^−4 μg/ml. Cells were then incubated with 20 μM ATP for 1 additional hour at 37° C. Plates were centrifuged for 2 min at 400 g and 50 μl cell supernatant are transferred in a luminescence microplate (white wells). 50 μl CellTiter-Glo™ Reagent (CTG) was added to the supernatant and emitted light was quantified after a 5 min incubation in the dark using a Enspire™ luminometer. Anti-CD39 antibody efficacy was determined by comparing emitted light in presence of antibody with ATP alone (maximal light emission) and ATP together with cells (minimal light emission).

[3] = target: T4, membrane-bound CD39 in Mino tumor cells; experiment: Inhibition of the enzymatic activity of cellular CD39 in Mino cells; format: cell-based
Method: as §2
Antibodies were tested for potency in inhibition of ATPase activity in cell lines that express membrane-bound CD39. […]

[4] = target: T5, human Ramos lymphoma cells (CD39); experiment: Antibody titration on Ramos cells by flow cytometry; format: binding; details: comparison
Method: Antibody I-394 was tested in two repeated experiments for binding to CHO cells expressing human CD39, CHO cells expressing cynomolgus (Macaca fascicularis) CD39, CHO cells expressing murine CD39, and human Ramos lymphoma cells (ATCC™, reference CRL-1596). Cells were incubated with various concentration of unlabeled anti-CD39 antibody from 30 μg/ml to 5×10^−4 μg/ml, for 30 minutes at 4° C. After washes, cells were incubated with Goat anti-mouse H+L labeled secondary antibody for 30 min at 4° C.

[5] = tested on: soluble CD39 protein released in cell culture supernatant from CHO cells expressing human CD39; experiment: Inhibition of ATPase activity of soluble CD39 released in CHO-huCD39 culture supernatant; format: biochemical; details: humanized variants
Method: as §1
Antibodies were tested for capacity to inhibit the ATPase activity of soluble CD39 protein using the assays used for inhibition of the enzymatic activity of soluble CD39 as described above (Methods). […]

[6] = Stability in reference formulation (storage, freeze thaw); format: physicochemical; details: about 7 mg/mL, pH 6.0 histidine/sucrose/NaCl/PS80, +5° C. and +40° C., up to 1 month
Method: (§3) Antibodies mAb1-24 and prior art anti-CD39 antibody BY40, all produced as human IgG1 isotypes with L234A/L235E/G237A/A330S/P331S substitutions were tested for stability in the following reference formulation at a concentration of approximatively 7 mg/mL: pH 6.0; histidine buffer (10 mM); sucrose (200 mM); NaCl (50 mM); Polysorbate 80 (PS80) (0.2 g/L). The stability of the formulations was monitored in two storage conditions (at +5° C.±3° C. and at +40±3° C. For each study, 3 time points were performed: T0, T15D (15 days) and T1M (1 month). A freeze thaw (F/T) and a thermal shift stability assay (TSSA) were conducted for the format comparison. To perform F/T cycles, the samples were frozen at least 2 hours at −20° C. and thawed at least 1 hour at room temperature, the F/T cycle is repeated three times and samples are tested 24 h after the last Freeze/Thaw cycle. At each time point, the following tests were performed: • Particulate Matter (MFI) • Visual Inspection (Appearance) • Impurities (SE-HPLC) • Turbidity (400 nm) • Protein Concentration (280 nm) (performed with Nanodrop, Thermo Fisher Scientific Inc.)

[7] = Aggregation temperature (thermal shift stability assay); format: physicochemical; details: human IgG1 with L234A/L235E/G237A/A330S/P331S
Method: as §3

binding to Ramos cells relative to I-394 [4] | Molecule | inhibition of CD39 (mode, strength) (CD39) | potency for inhibition of soluble CD39 relative to parental I-394 [1] | potency at blocking CD39 enzymatic activity relative to other antibodies [2] | potency at blocking CD39 enzymatic activity relative to other antibodies [3] | potency relative to parental I-394, soluble CD39 in CHO-huCD39 supernatant [5] | physicochemical stability [6] | Aggregation temperature (TAgg) [7] [°C]
– | CCN(CC)c1ncnc2c1ncn2[C@@H]1O[C@H](COP(=O)(O)OP(=O)(O)C(Br)(Br)P(=O)(O)O)[C@@H](O)[C@H]1O [ARL67156] | weak competitive inhibitor | – | – | – | – | – | –
best binding | B1 | – | comparable to the parental I-394 antibody | more potent at blocking CD39 enzymatic activity compared to all other antibodies | more potent at blocking CD39 enzymatic activity compared to all other antibodies | comparable to the parental I-394 antibody | good physicochemical stability | ~70
best binding | B2 | – | comparable to the parental I-394 antibody | more potent at blocking CD39 enzymatic activity compared to all other antibodies | more potent at blocking CD39 enzymatic activity compared to all other antibodies | comparable to the parental I-394 antibody | good physicochemical stability | ~70
